Experimental data as given in patent publication US6114296.

Experiments:
[1] = target: Humicola insolens 43 kD endoglucanase (Humicola insolens)
[2] = target: Variant I: V221S+N222S+Q223T (Humicola insolens)
[3] = target: Variant II: V240P+Q241P (Humicola insolens)

Residual Activity, % DAA (25° C., 5 d storage in liquid detergent with protease) [1]: 63 % DAA
Residual Activity, % DAA (25° C., 5 d storage in liquid detergent with protease) [2]: 83 % DAA
Residual Activity, % DAA (25° C., 5 d storage in liquid detergent with protease) [3]: 81 % DAA
Substance: Savinase protease (from UniProt P29600) (enzyme)
